Test results taken from paper PMC6997208, “Conversion of walnut tyrosinase into a catechol oxidase by site directed mutagenesis” (Scientific Reports, 2020).
Residue numbers refer to the chain shown, from its start. Names may count otherwise.

B1: jrPPO1-wt (Juglans regia; V207I) (protein)
chain: DPVSAPELTLCSEADLPAGALPVNCCPPTSKKIKDFVLPSQNTPLRVRPAAHLVDNDYIAKYNKGIELMKSLPADDPRSFTQQANVHCAYCDGAYTQVGFPDLSLQIHECWLFFPFHRYYVYFFEKILGKLIGDPTFALPFWNWDSPPGMQLPSLYAVSNSAIYDPLRNANHQPPTIIDLDYGETSESTTTTDQVPSNLKIMYRQMVSGAKNPTLFFGSPYRAGDEPDPGAGTIESTPHNNIHLWTGDDTQPNIENMGNFYSAGRDPIFFAHHSNVDRMWTIWKTLGGKRKDITDPDWLNSSFFFYDENADPVRVKVKDCVDNTKLRYVYQDVEIPWLKTKPTPRKSRVKKVAKAFPAGHGGVAQAAETSSVKFPIVLDKVISTVVARPKKSRSKKEKDDEEEVLVIEGIEVERDIPVKFDVFINDEDDAPTGPGINTEFAGSFVSVPQQKQTKKKKTYLRIGISDLLEDLGAEDDDSVVVTLVPRFGKGKAIIGGIKIVLIG
notes: latent pro-enzyme (active domain + C-terminal domain) without transit peptide; E. coli BL21(DE3), pGEX-6P-1, N-terminal GST tag cut with HRV-3C protease; cloned from walnut leaf cDNA, Val107Ile versus FJ769240.1
B2: jrPPO1-wt (Juglans regia; L344R/V307I) (protein)
chain: B1 chain with I107V, V207I, L244R
notes: as for B1
B3: jrPPO1-wt (Juglans regia; F360G/V307I) (protein)
chain: B1 chain with I107V, V207I, F260G
notes: as for B1
B4: jrPPO1-wt (Juglans regia; L344R/N340K/V307I) (protein)
chain: B1 chain with I107V, V207I, N240K, L244R
notes: as for B1
B5: jrPPO1-wt (Juglans regia; L344R/N340T/V307I) (protein)
chain: B1 chain with I107V, V207I, N240T, L244R
notes: as for B1
B6: jrPPO1-wt (Juglans regia; N340K/V307I) (protein)
chain: B1 chain with I107V, V207I, N240K
notes: as for B1

These proteins were tested on NCCc1ccc(O)c(O)c1 (assay: spectrophotometric quinone formation). Details: 50 mM sodium phosphate pH 6.0, 2 mM SDS as activator, 25 °C, diphenolase.
Type: biochemical, Juglans regia
From the text: (§1) spectrophotometric quinone formation on jrPPO1-wt

**Q.** With B1 as the protein, how does the Km read?
**A.** 0.75 ± 0.13 mM

**Q.** What about the kcat of the same protein?
**A.** 92.5 ± 7.8 s⁻¹

**Q.** What about the kcat/Km of the same protein?
**A.** 123000 ± 24000 M⁻¹ s⁻¹

**Q.** B2 was tested. Which Km did it give?
**A.** 2.36 ± 0.41 mM

**Q.** What about the kcat of the same protein?
**A.** 24.9 ± 1.6 s⁻¹

**Q.** What about the kcat/Km of the same protein?
**A.** 10600 ± 2000 M⁻¹ s⁻¹

**Q.** For B3, which Km is on record?
**A.** 1.2 ± 0.4 mM

**Q.** What about the kcat of the same protein?
**A.** 7.36 ± 0.98 s⁻¹

**Q.** And the kcat/Km?
**A.** 5900 ± 2200 M⁻¹ s⁻¹

**Q.** Which results are given for B4?
**A.** Km: 6.8 ± 1.3 mM; kcat: 0.029 ± 0.002 s⁻¹; kcat/Km: 4.28 ± 0.85 M⁻¹ s⁻¹

**Q.** What does the source list for B5?
**A.** Km: 6.6 ± 1.5 mM; kcat: 0.789 ± 0.079 s⁻¹; kcat/Km: 122 ± 26 M⁻¹ s⁻¹

**Q.** Which results are given for B6?
**A.** Km: 19.8 ± 4.7 mM; kcat: 2.51 ± 0.4 s⁻¹; kcat/Km: 132 ± 97 M⁻¹ s⁻¹

The proteins below were run on N[C@@H](Cc1ccc(O)c(O)c1)C(=O)O (assay: spectrophotometric quinone formation). Details: 50 mM sodium phosphate pH 6.0, 2 mM SDS as activator, 25 °C, diphenolase.
Type: biochemical, Juglans regia
From the text: as §1

**Q.** For B1, which Km is on record?
**A.** 6.2 ± 1.0 mM

**Q.** And the kcat?
**A.** 111 ± 8.8 s⁻¹

**Q.** And the kcat/Km?
**A.** 18100 ± 3400 M⁻¹ s⁻¹

**Q.** What does the source list for B4?
**A.** Km: 16.5 ± 4.8 mM; kcat: 0.104 ± 0.019 s⁻¹; kcat/Km: 6 ± 2.1 M⁻¹ s⁻¹

**Q.** B5 was tested. Which Km did it give?
**A.** 13.1 ± 3.3 mM

**Q.** What about the kcat of the same protein?
**A.** 0.18 ± 0.027 s⁻¹

**Q.** And the kcat/Km?
**A.** 12.9 ± 4 M⁻¹ s⁻¹

These proteins were tested on N[C@@H](Cc1ccc(O)cc1)C(=O)O (assay: spectrophotometric quinone formation). Details: 50 mM sodium phosphate pH 6.0, 2 mM SDS as activator, 25 °C, monophenolase.
Type: biochemical, Juglans regia
From the text: as §1

**Q.** Which Km does the source give for B1 here?
**A.** 1.42 ± 0.37 mM

**Q.** What about the kcat of the same protein?
**A.** 6 ± 1.1 s⁻¹

**Q.** What about the kcat/Km of the same protein?
**A.** 4300 ± 1400 M⁻¹ s⁻¹

Each protein was assayed on NCCc1ccc(O)cc1 (assay: spectrophotometric quinone formation). Details: 50 mM sodium phosphate pH 6.0, 2 mM SDS as activator, 25 °C, monophenolase.
Type: biochemical, Juglans regia
From the text: as §1

**Q.** With B1 as the protein, how does the Km read?
**A.** 0.451 ± 0.084 mM

**Q.** What about the kcat of the same protein?
**A.** 24.7 ± 1.5 s⁻¹

**Q.** And the kcat/Km?
**A.** 55000 ± 11000 M⁻¹ s⁻¹

**Q.** With B2 as the protein, how does the Km read?
**A.** 2.68 ± 0.53 mM

**Q.** And the kcat?
**A.** 1.62 ± 0.09 s⁻¹

**Q.** What about the kcat/Km of the same protein?
**A.** 600 ± 120 M⁻¹ s⁻¹

**Q.** Which results are given for B3?
**A.** Km: 3.05 ± 0.72 mM; kcat: 0.323 ± 0.025 s⁻¹; kcat/Km: 103 ± 26 M⁻¹ s⁻¹

**Q.** Which results are given for B6?
**A.** Km: 8.2 ± 1.4 mM; kcat: 0.0542 ± 0.0034 s⁻¹; kcat/Km: 6.6 ± 1.2 M⁻¹ s⁻¹
